# Experimental data reported in the supplement of paper PMC10567573.
# B1: ANKRD9 (parent)
# chain: LLEDMRASEAFHWDERGRAAAYSP
# Variants of: B1
# Assay: protein stability index of a GFP-peptide fusion (GPS, HEK-293T) (PSI 1-6); higher = more stable
# Settings: c terminus: a fixed tail appended
# 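Further: lentivirally expressed fusions sorted by FACS into six bins by GFP to DsRed ratio, PSI derived from sequencing read proportions per bin multiplied by bin number.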
row,Variant,protein stability index
1,LLEDMRADEAFHWDERGRAAAYSP,3.89
2,LLEDMRAYEAFHWDERGRAAAYSP,2.7
3,LLEDMRAFEAFHWDERGRAAAYSP,3.31
4,LLEDMRALEAFHWDERGRAAAYSP,2.73
5,LLEDMRAGEAFHWDERGRAAAYSP,2.19
6,LLEDMRANEAFHWDERGRAAAYSP,4.13
7,LLEDMRAWEAFHWDERGRAAAYSP,3.13
8,LLEDMRAHEAFHWDERGRAAAYSP,3.13
9,LLEDMRAMEAFHWDERGRAAAYSP,3.04
10,LLEDMRAPEAFHWDERGRAAAYSP,3.3
11,LLEDMRAKEAFHWDERGRAAAYSP,3.96
12,LLEDMRACEAFHWDERGRAAAYSP,2.5
13,LLEDMRAREAFHWDERGRAAAYSP,2.88
14,LLEDMRAAEAFHWDERGRAAAYSP,3.3
15,LLEDMRAIEAFHWDERGRAAAYSP,1.95
16,LLEDMRATEAFHWDERGRAAAYSP,1.82
17,LLEDMRAVEAFHWDERGRAAAYSP,2.82
18,LLEDMRAQEAFHWDERGRAAAYSP,3.91
19,LLETMRASEAFHWDERGRAAAYSP,2.62
20,LLEVMRASEAFHWDERGRAAAYSP,2.19
21,LLEYMRASEAFHWDERGRAAAYSP,1.9
22,LLESMRASEAFHWDERGRAAAYSP,2.23
23,LLEWMRASEAFHWDERGRAAAYSP,1.52
24,LLEDMRASEAFHRDERGRAAAYSP,2.94

row,Variant,protein stability index
1,LLEDMRASEAFHCDERGRAAAYSP,2.53
2,LLEDMRASEAFHADERGRAAAYSP,2.16
3,LLEDMRASEAFHNDERGRAAAYSP,2.2
4,LLEDMRASEAFHHDERGRAAAYSP,2.66
5,LLEDMRASEAFHDDERGRAAAYSP,2.24
6,LLEDMRASEAFHEDERGRAAAYSP,2.06
7,LLEDMRASEAFHMDERGRAAAYSP,1.84
8,LLEDMRASEAFHLDERGRAAAYSP,2.41
9,LLEDMRASEAFHKDERGRAAAYSP,2.93
10,LLEDMRASEAFHPDERGRAAAYSP,2.74
11,LLEDMRASEAFHGDERGRAAAYSP,2.61
12,LLEDMRASEAFHIDERGRAAAYSP,1.87
13,LLEDMRASEAFHYDERGRAAAYSP,1.39
14,LLEDMRASEAFHVDERGRAAAYSP,2.05
15,LLEDMRASEAFHFDERGRAAAYSP,2.05
16,LLEDMRASEAFFWDERGRAAAYSP,2.29
17,LLEDMRASEAFLWDERGRAAAYSP,2.68
18,LLEDMRASEAFGWDERGRAAAYSP,2.49
19,LLEDMRASEAFKWDERGRAAAYSP,2.5
20,LLEDMRASEAFEWDERGRAAAYSP,1.83
21,LLEDMRASEAFCWDERGRAAAYSP,3.35
22,LLEDMRASEAFPWDERGRAAAYSP,1.95
23,LLEDMRASEAFAWDERGRAAAYSP,3.33
24,LLEDMRASEAFDWDERGRAAAYSP,2.1

row,Variant,protein stability index
1,LLEDMRASEAFVWDERGRAAAYSP,1.34
2,LLEDMRASEAFMWDERGRAAAYSP,1.68
3,LLEDMRASEAFIWDERGRAAAYSP,2.61
4,LLEDMRASEAFTWDERGRAAAYSP,2.21
5,LLEDMRASEAFRWDERGRAAAYSP,2.2
6,LLEDMRASEKFHWDERGRAAAYSP,1.97
7,LLEDMRASEVFHWDERGRAAAYSP,1.5
8,LLEDMRASERFHWDERGRAAAYSP,1.86
9,LLEDMRASEWFHWDERGRAAAYSP,1.94
10,LLEDMRASESFHWDERGRAAAYSP,1.85
11,LLEDMRASEDFHWDERGRAAAYSP,1.23
12,LLEDMRASEPFHWDERGRAAAYSP,3.58
13,LLEDMRASEHFHWDERGRAAAYSP,2.7
14,LLEDMRASECFHWDERGRAAAYSP,1.39
15,LLEDMRASEGFHWDERGRAAAYSP,2.46
16,LLEDMRASELFHWDERGRAAAYSP,2.82
17,LLEDMRASETFHWDERGRAAAYSP,2.44
18,LLEDMRASEMFHWDERGRAAAYSP,1.94
19,LLEDMRASEFFHWDERGRAAAYSP,2.1
20,LLEDMRASEEFHWDERGRAAAYSP,1.81
21,LLEDMRASENFHWDERGRAAAYSP,1.54
22,LLEDMRASEAFHWNERGRAAAYSP,2.11
23,LLEDMRASEAFHWKERGRAAAYSP,1.41
24,LLEDMRASEAFHWYERGRAAAYSP,1.98

row,Variant,protein stability index
1,LLEDMRASEAFHWLERGRAAAYSP,2.09
2,LLEDMRASEAFHWWERGRAAAYSP,2.41
3,LLEDMRASEAFHWTERGRAAAYSP,2.57
4,LLEDMRASEAFHWIERGRAAAYSP,1.77
5,LLEDMRASEAFHWFERGRAAAYSP,1.36
6,LLEDMRASEAFHWPERGRAAAYSP,1.6
7,LLEDMRASEAFHWMERGRAAAYSP,2.33
8,LLEDMRASEAFHWVERGRAAAYSP,1.35
9,LLEDMRASEAFHWRERGRAAAYSP,2.29
10,LLEDMRASEAFHWQERGRAAAYSP,1.58
11,LLEDMRASEAFHWHERGRAAAYSP,2.13
12,LLEDMRASEAFHWDECGRAAAYSP,1.56
13,LLEDMRASEAFHWDEFGRAAAYSP,1.86
14,LLEDMRASEAFHWDEEGRAAAYSP,1.93
15,LLEDMRASEAFHWDEAGRAAAYSP,2.24
16,LLEDMRASEAYHWDERGRAAAYSP,2.03
17,LLEDMRASEANHWDERGRAAAYSP,2.84
18,LLEDMRASEAIHWDERGRAAAYSP,1.78
19,LLEDMRASEAHHWDERGRAAAYSP,2.66
20,LLEDMRASEADHWDERGRAAAYSP,3.58
21,LLEDMRASEAAHWDERGRAAAYSP,2.71
22,LLEDMRASEASHWDERGRAAAYSP,2.91
